Experimental data reported in patent US20150307565A1 (WISCONSIN ALUMNI RESEARCH FOUNDATION, published 2015).

B1: Arabidopsis PhyB PSM (residues 1-624) assembled with PΦB (receptor, Arabidopsis thaliana, UniProt P14713 1-624, looked up)
chain: MVSGVGGSGGGRGGGRGGEEEPSSSHTPNNRRGGEQAQSSGTKSLRPRSNTESMSKAIQQYTVDARLHAVFEQSGESGKSFDYSQSLKTTTYGSSVPEQQITAYLSRIQRGGYIQPFGCMIAVDESSFRIIGYSENAREMLGIMPQSVPTLEKPEILAMGTDVRSLFTSSSSILLERAFVAREITLLNPVWIHSKNTGKPFYAILHRIDVGVVIDLEPARTEDPALSIAGAVQSQKLAVRAISQLQALPGGDIKLLCDTVVESVRDLTGYDRVMVYKFHEDEHGEVVAESKRDDLEPYIGLHYPATDIPQASRFLFKQNRVRMIVDCNATPVLVVQDDRLTQSMCLVGSTLRAPHGCHSQYMANMGSIASLAMAVIINGNEDDGSNVASGRSSMRLWGLVVCHHTSSRCIPFPLRYACEFLMQAFGLQLNMELQLALQMSEKRVLRTQTLLCDMLLRDSPAGIVTQSPSIMDLVKCDGAAFLYHGKYYPLGVAPSEVQIKDVVEWLLANHADSTGLSTDSLGDAGYPGAAALGDAVCGMAVAYITKRDFLFWFRSHTAKEIKWGGAKHHPEDKDDGQRMHPRSSFQAFLEVVKSRSQPWETAEMDAIHSLQLILRDSFKESEAA
modifications: phytochromobilin (PΦB) attached by a thioether linkage to Cys-357
notes: Tested for self-association in solution as Pr (equilibrium sedimentation, SEC) and as mostly Pfr after red light (SEC); also called full PSM fragment; full-length PSM; not shown: 6His tag: the PSM constructs carried N- or C-terminal 6His tags (the N-terminal one is TEV-cleavable and leaves Gly-His)
B2: Arabidopsis PhyB(90-624) biliprotein bearing a C-terminal SLHHHHHH tag, assembled with phytochromobilin (PΦB) (receptor, Arabidopsis thaliana)
chain: TTYGSSVPEQQITAYLSRIQRGGYIQPFGCMIAVDESSFRIIGYSENAREMLGIMPQSVPTLEKPEILAMGTDVRSLFTSSSSILLERAFVAREITLLNPVWIHSKNTGKPFYAILHRIDVGVVIDLEPARTEDPALSIAGAVQSQKLAVRAISQLQALPGGDIKLLCDTVVESVRDLTGYDRVMVYKFHEDEHGEVVAESKRDDLEPYIGLHYPATDIPQASRFLFKQNRVRMIVDCNATPVLVVQDDRLTQSMCLVGSTLRAPHGCHSQYMANMGSIASLAMAVIINGNEDDGSNVASGRSSMRLWGLVVCHHTSSRCIPFPLRYACEFLMQAFGLQLNMELQLALQMSEKRVLRTQTLLCDMLLRDSPAGIVTQSPSIMDLVKCDGAAFLYHGKYYPLGVAPSEVQIKDVVEWLLANHADSTGLSTDSLGDAGYPGAAALGDAVCGMAVAYITKRDFLFWFRSHTAKEIKWGGAKHHPEDKDDGQRMHPRSSFQAFLEVVKSRSQPWETAEMDAIHSLQLILRDSFKESEAASLHHHHHH
modifications: phytochromobilin (PΦB) attached by a thioether linkage to Cys-357
notes: Crystallized as Pr; Two subunits (A and B) form the crystal dimer; also called PDB 4OUR

Columns and labels:
[1] = target: the molecule itself; assay: equilibrium sedimentation (Pr) and size exclusion chromatography (Pr and Pfr); self-association
Experimental: FIG. 8A: Apparent size of PhyB(PSM) was measured by size exclusion chromatography (SEC) as either Pr (red circle) or following saturating red light irradiation (mostly Pfr) (purple circle). The column was calibrated with Bio-Rad size-exclusion protein standards and blue dextran (open circles). The partition coefficient, Kₐᵥ, was calculated using the equation, Kₐᵥ=(Vₑ−V₀)/(Vₜ−V₀), where Vₑ, V₀, and Vₜ are the elution, void and total volumes, respectively. V₀ and Vₜ were measured using blue dextran and vitamin B12. FIG. 8B: Equilibrium sedimentation was used to measure the mass of PhyB(PSM) as Pr using two concentrations and three rotor speeds. Lines represent global fits of the data. The calculated ratio of the measured molecular weight to that calculated from the sequence is shown.
Equilibrium sedimentation was conducted at 20° C. in darkness with Beckmann XL-A analytical ultracentrifuge and PhyB dissolved as Pr in SAB. SEC was conducted at 20° C. by FPLC (0.2 ml/min) with a 0.5×20 cm analytical grade Superdex 200 column (GE) equilibrated with SAB and 50 μl of either Pr samples or samples continuously irradiated with red light (mostly Pfr).

[2] = target: the molecule itself; assay: X-ray crystallography (self-association in the crystal)
Experimental: Well ordered crystals were formed in solutions containing 15 mg/ml PhyB, 1.2 M MgSO₄, 4% glycerol, 1% poly(ethylene glycol) 3350, and 100 mM BisTris(HCl) (pH 5.5). Crystals were exchanged into 100 mM MgSO₄, 25% poly(ethylene glycol) 3350, 15% poly(ethylene glycol) 550 monomethyl ether, and 100 mM BisTris (pH 5.5), and flash cooled in liquid nitrogen. Final datasets were collected at the Life Sciences Collaborative Access Team at the Advanced Photon Source (Argonne, Ill.), and indexed, integrated, and scaled using HKL2000 (Otwinowski et al., Method Enzymol. 276-307-326 (1997)). Initial phases were calculated by PHASER (McCoy et al., J. Appl. Crystallogr 40:658-674 (2007)) using the PAS-GAF region of Syn-Cph1 as the search model (PDB 2VEA, (Essen et al., Proc. Natl. Acad. Sci. USA 105:14709-14714 (2008)). Manual model-building was conducted with COOT (Emlsey et al., Acta Crystallogr D Biol. Crystallogr 60:2126-2132 (2004)) and refined with PHENIX (McCoy et al., J. Appl. Crystallogr 40:658-674 (2007)) without real-space refinement and invoking non-crystallographic symmetry in torsion angle mode, and validated with MOLPROBITY (Chen et al., Acta Crystallogr D Biol. Crystallogr 66:12-21 (2010)). Superpositions were arranged with LSQKAB (Kabsch, Acta Crystallogr A 32:922-923 (1976)).

Row | Protein | binding result [1] | binding result [2]
1 | B1 | no binding | 
2 | B2 |  | binds
